The values that follow come from patent publication US6114506, “Composition and method for enhancing fibrinolysis” (General Hospital Corporation, dated 2000).

The target of assay [1] is T1, human alpha-2-antiplasmin (human, UniProt P08697, 125I label in the radioimmunoassays of Example 1; biotin in the competition assay of Example 5; unlabelled in the ELISA, plasmin and clot lysis assays).
T1 sequence: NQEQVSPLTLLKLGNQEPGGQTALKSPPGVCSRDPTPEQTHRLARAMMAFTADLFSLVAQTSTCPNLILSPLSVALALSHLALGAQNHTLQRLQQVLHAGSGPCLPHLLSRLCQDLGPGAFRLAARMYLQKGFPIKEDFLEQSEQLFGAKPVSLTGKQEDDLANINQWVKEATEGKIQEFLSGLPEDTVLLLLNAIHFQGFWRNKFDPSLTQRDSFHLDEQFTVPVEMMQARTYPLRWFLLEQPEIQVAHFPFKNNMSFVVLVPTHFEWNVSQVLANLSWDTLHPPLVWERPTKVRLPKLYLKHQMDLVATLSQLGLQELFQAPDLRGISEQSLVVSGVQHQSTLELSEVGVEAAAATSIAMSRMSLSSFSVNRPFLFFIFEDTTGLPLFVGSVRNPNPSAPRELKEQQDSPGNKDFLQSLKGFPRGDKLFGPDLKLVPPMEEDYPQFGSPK
The experiment in a line: ELISA: plates coated with α2-antiplasmin (American Diagnostica), anti-human kappa conjugate.

Assay [2] concerns the target T1, human alpha-2-antiplasmin.

B1: h77A3-1 (humanized 77A3) (antibody, V domains shown)
VH: QIQLVQSGSELKKPGASVKISCKASGYTFTNYGMNWVRQAPGQGLEWMGWINTKSGEPTYAEEFKGRFVFSLDTSVTTAYLQISSLKAEDTAVYFCARWVPGTYAMDYWGQGTTVTVSS
VL: DIQMTQSPSSLSASVGDRVTITCRASGNIHNYLAWYQQKQGKSPQLLVYNAKTLASGVPSRFSGSGSGTDFTLTISSLQPEDFGSHYCQHFWTTPWTFGGGTKLEIK
On to B1, for which the binding result in assay [1] was “binds”.

B2: h77A3-2 (humanized 77A3) (antibody, V domains shown)
VH: QIQLVQSGAEVKKPGASVKISCKASGYTFTNYGMNWVRQAPGQGLEWMGWINTKSGEPTYAEEFKGRFTFTLDTSTSTAYLEIRSLRSDDTAVYFCARW
VL: DIQMTQSPSSLSASVGDRVTITCRASGNIHNYLAWYQQKQGKSPQLLVYNAKTLASGVPSRFSGSGSGTDFTLTISSLQPEDFGSHY
Consider B2, for which, in assay [2], the plasmin assay with chromogenic substrate: loss in activity fell in the range of 20 to 30%.
